Data as given in patent US20180002415A1 (Chugai, published 2018).

T1: 481-660
T1 construct: Expressed in E. coli
T1 GST fusion polypeptide: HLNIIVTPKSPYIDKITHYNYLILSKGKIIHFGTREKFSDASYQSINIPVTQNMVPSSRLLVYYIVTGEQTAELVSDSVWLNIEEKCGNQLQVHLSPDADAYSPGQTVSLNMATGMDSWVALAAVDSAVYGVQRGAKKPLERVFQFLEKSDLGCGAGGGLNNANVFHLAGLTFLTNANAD

T2: 321-500
T2 construct: Expressed in E. coli
T2 GST fusion polypeptide: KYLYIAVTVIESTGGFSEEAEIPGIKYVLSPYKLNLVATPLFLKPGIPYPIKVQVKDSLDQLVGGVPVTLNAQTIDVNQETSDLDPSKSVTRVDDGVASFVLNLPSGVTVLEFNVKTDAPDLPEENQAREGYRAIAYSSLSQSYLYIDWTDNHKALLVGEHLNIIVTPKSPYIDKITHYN

T3: 161-340
T3 construct: Expressed in E. coli
T3 GST fusion polypeptide: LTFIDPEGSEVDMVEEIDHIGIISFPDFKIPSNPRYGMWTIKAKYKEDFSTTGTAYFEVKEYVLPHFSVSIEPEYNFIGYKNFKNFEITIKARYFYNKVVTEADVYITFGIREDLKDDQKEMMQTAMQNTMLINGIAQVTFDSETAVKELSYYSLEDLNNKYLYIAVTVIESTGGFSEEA

T4: recombinant cynomolgus monkey C5 (cynomolgus monkey, UniProt P01031 20-1676 (human entry), limits assumed)
T4 construct: also called cynoC5
T4 chain: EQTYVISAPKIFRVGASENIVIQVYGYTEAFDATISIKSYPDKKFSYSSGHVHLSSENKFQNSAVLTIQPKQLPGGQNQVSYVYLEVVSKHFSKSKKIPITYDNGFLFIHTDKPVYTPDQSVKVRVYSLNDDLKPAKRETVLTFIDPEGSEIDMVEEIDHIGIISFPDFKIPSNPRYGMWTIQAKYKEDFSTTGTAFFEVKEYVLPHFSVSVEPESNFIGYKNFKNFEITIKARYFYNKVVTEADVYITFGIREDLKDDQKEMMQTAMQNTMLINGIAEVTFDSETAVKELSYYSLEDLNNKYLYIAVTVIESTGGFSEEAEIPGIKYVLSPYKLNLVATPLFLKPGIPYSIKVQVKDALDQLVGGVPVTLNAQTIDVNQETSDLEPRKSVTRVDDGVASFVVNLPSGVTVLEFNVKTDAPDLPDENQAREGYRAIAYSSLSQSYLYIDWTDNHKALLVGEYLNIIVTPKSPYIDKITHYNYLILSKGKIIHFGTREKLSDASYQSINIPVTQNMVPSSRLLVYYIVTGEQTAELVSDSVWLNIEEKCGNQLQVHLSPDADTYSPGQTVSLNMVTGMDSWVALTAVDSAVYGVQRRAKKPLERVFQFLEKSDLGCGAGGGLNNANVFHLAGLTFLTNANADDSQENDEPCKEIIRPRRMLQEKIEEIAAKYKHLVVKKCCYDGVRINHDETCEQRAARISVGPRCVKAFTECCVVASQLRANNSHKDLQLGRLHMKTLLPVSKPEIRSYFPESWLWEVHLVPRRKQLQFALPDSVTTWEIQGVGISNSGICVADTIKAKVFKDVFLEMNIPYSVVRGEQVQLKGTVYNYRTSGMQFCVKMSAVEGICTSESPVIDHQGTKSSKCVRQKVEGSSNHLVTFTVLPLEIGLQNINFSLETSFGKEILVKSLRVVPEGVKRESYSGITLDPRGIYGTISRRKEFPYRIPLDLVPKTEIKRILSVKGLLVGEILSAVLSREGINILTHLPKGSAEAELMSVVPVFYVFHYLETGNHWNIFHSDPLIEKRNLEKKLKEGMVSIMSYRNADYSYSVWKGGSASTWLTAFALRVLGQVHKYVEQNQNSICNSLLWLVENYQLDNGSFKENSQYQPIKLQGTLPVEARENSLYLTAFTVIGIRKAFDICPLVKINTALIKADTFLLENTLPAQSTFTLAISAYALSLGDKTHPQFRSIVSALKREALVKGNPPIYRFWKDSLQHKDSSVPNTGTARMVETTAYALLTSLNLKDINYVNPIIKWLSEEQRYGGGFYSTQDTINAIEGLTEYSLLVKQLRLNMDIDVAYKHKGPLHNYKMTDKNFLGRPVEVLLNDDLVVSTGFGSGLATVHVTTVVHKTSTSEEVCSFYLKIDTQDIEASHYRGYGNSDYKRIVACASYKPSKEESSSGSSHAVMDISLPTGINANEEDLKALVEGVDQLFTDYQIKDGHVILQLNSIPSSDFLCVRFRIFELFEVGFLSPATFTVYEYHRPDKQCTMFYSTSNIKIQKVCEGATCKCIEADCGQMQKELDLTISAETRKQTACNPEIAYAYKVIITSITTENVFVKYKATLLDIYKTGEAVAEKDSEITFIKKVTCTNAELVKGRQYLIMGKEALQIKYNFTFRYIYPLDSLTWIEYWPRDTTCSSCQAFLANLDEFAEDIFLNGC


Tests used:
[1] = target: T1, 481-660; experiment: Western blot of E. coli lysates expressing GST-fused C5 beta-chain fragments
Protocol: (§1) Anti-C5 monoclonal antibodies (MAbs) were tested for binding to C5 β-chain-derived peptides in Western blot analysis. […] The E. coli samples were harvested after incubation with 1 mM Isopropyl β-D-1-thiogalactopyranoside (IPTG) for 5 hours at 37° C., and centrifuged at 20000×g for 1 min to obtain pellets.

[2] = target: T2, 321-500; experiment: as above
Protocol: as §1

[3] = target: T3, 161-340; experiment: as above
Protocol: as §1

[4] = target: T5, C5 peptide 45-124 fused to GST-tag (human, UniProt P01031 45-124); experiment: summary drawing of the binding reactions to C5 beta-chain fragments
T5 construct: not shown: GST-tag (glutathione S-transferase); vector and linker not restated

[5] = target: T6, C5 peptide 33-108 fused to GST-tag (human, UniProt P01031 33-108); experiment: as above
T6 construct: not shown: GST-tag (glutathione S-transferase); vector and linker not restated

[6] = target: T7, C5 peptide 52-124 fused to GST-tag (human, UniProt P01031 52-124); experiment: as above
T7 construct: not shown: GST-tag (glutathione S-transferase); vector and linker not restated

[7] = target: T8, C5 peptide 33-111 fused to GST-tag (human, UniProt P01031 33-111); experiment: as above
T8 construct: not shown: GST-tag (glutathione S-transferase); vector and linker not restated

[8] = target: T9, C5 peptide 45-111 fused to GST-tag (human, UniProt P01031 45-111); experiment: as above
T9 construct: not shown: GST-tag (glutathione S-transferase); vector and linker not restated

[9] = target: T4, recombinant cynomolgus monkey C5; experiment: SPR (Biacore), 37C, pH 7.4, Ab captured on ProA/G
Protocol: To observe the cross-reactivity of anti-C5 antibodies against human C5 (hC5) and cynomolgus monkey C5 (cynoC5), BIACORE® kinetics analysis was performed.

[10] = target: T10, recombinant human C5 (human, UniProt P01031 20-1676); experiment: SPR (Biacore), ratio of dissociation rates of conditions (2) and (1)
T10 construct: Also used for the C5 of normal human serum in the functional rows; also called hC5; rhC5
Protocol: (§2) The kinetic parameters of anti-C5 antibodies against recombinant human C5 were assessed at 37° C. using BIACORE® T200 instrument (GE Healthcare) at three different conditions; (1) both association and dissociation were at pH7.4, (2) both association and dissociation were at pH5.8, and (3) association was at pH7.4 but dissociation was at pH5.8. ProA/G (Pierce) was immobilized onto a CM1 sensorchip using amine coupling kit (GE Healthcare) according to the recommended settings by GE Healthcare. Antibodies and analytes for condition (1) and (3) were diluted in ACES pH7.4 buffer (20 mM ACES, 150 mM NaCl, 1.2 mM CaCl₂, 0.05% Tween 20, 0.005% NaN₃) and for condition (2) they were diluted in ACES pH5.8 buffer (20 mM ACES, 150 mM NaCl, 1.2 mM CaCl₂, 0.05% Tween 20, 0.005% NaN₃). […] The surface was regenerated using 25 mM NaOH. Kinetic parameters at condition (1) and (2) were determined by fitting the sensorgrams with a 1:1 binding model and the dissociation rate at condition (3) was determined by fitting the sensorgrams with a 1:1 dissociation for MCK model using BIACORE® T200 Evaluation software, version 2.0 (GE Healthcare). pH dependency of all antibodies were shown as ratio of dissociation rate of condition (2) and (1).

[11] = target: T10, recombinant human C5; experiment: SPR (Biacore), 37C, association at pH 7.4, dissociation at pH 5.8
Protocol: as §2

[12] = target: T10, recombinant human C5; experiment: SPR (Biacore), 37C, association and dissociation at pH 7.4, Ab on ProA/G
Protocol: as §2

[13] = target: T10, recombinant human C5; experiment: SPR (Biacore), 37C, association and dissociation at pH 5.8, Ab on ProA/G
Protocol: as §2

T8 sequence (P01031 33-111): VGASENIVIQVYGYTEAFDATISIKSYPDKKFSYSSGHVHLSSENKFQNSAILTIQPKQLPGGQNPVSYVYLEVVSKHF
T9 sequence (P01031 45-111): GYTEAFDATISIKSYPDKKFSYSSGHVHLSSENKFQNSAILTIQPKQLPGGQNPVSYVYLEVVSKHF
T7 sequence (P01031 52-124): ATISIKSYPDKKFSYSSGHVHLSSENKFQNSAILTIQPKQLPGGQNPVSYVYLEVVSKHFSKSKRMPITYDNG
T5 sequence (P01031 45-124): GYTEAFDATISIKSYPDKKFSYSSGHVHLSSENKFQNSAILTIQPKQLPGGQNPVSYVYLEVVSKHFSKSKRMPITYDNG
T6 sequence (P01031 33-108): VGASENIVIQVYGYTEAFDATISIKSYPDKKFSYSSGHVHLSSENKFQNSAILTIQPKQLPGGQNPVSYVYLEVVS

binding result [1] | binding result [2] | binding result [3] | binding result [4] | binding result [5] | binding result [6] | binding result [7] | binding result [8] | Kd [9] | pH dependency (kd pH 5.8 / kd pH 7.4) [10] | koff [11] | koff [12] | kon [12] | koff [13] | kon [13] | Binder
– | – | – | – | – | – | – | – | – | 21.1 fold | 0.0161 s⁻¹ | 0.000412 s⁻¹ | 1.28e+06 M⁻¹ s⁻¹ | 0.00869 s⁻¹ | 109000 M⁻¹ s⁻¹ | 305LO16-SG422 (antibody, human IgG4, V domains shown, Modified human IgG4 CH SG422, human CL SK1) VH: QVQLVESGGGLVQPGRSLRLSCAASGFTVHSSYYMAWVRQAPGKGLEWVGAIFTGSGAEYKAEWVKGRFTISRDNSKNTLYLQMNSLRAEDTAVYYCASDAGYDYPTHAMHYWGRGTLVTVSS VL: DIQMTQSPSSLSASVGDRVTITCRASQGISSSLAWYQQKPGKAPKLLIYGASETESGVPSRFSGSGSGTDFTLTISSLQPEDFATYYCQNTKVGSSYGNTFGGGTKVEIKR
no binding | no binding | no binding | no binding | no binding | no binding | no binding | no binding | 1.57 nM | – | – | – | – | – | – | CFA0666 (antibody, V domains shown, Chimeric, rabbit V regions; also called CFA0666-F760G4) VH: QSVEESGGRLVTPGTPLTLTCTVSGFSLSTYAMGWVRQAPGKGLEWIGTIDTGDNSFYANWAKGRFTISKTSTTVDLKITSPTAEDTATYFCARNDGSVYNLFNLWGPGTLVTVSS VL: DVVMTQTPASVSAAVGGTVTIKCQASENIYSALSWYQQKPGLRPRLLIYYASTLASGVPSRFKGSRSGTEFTLTISDLECADAATYYCQQYYDINSVDNTFGGGTKVVVE
– | – | – | – | – | – | – | – | – | 17.5 fold | 0.0161 s⁻¹ | 0.000467 s⁻¹ | 1.44e+06 M⁻¹ s⁻¹ | 0.00818 s⁻¹ | 141000 M⁻¹ s⁻¹ | 305LO20-SG115 (antibody, human IgG1, Modified human IgG1 CH SG115, human CL SK1) heavy: QVQLVESGGGLVQPGGSLRLSCAASGFTVHSSYYMAWVRQAPGKGLEWVGAIFTGSGAEYKAEWAKGRVTISKDTSKNQVVLTMTNMDPVDTATYYCASDAGYDYPTHAMHYWGQGTLVTVSSASTKGPSVFPLAPSSKSTSGGTAALGCLVKDYFPEPVTVSWNSGALTSGVHTFPAVLQSSGLYSLSSVVTVPSSSLGTQTYICNVNHKPSNTKVDKKVEPKSCDKTHTCPPCPAPELRRGPKVFLFPPKPKDTLMISRTPEVTCVVVDVSHEDPEVKFNWYVDGVEVHNAKTKPREEQYNSTYRVVSVLTVLHQDWLNGKEYKCKVSNKGLPSSIEKTISKAKGQPREPQVYTLPPSREEMTKNQVSLTCLVKGFYPSDIAVEWESNGQPENNYKTTPPVLDSDGSFFLYSKLTVDKSRWQQGNVFSCSVLHEALHAHYTRKELSLSP light: DIQMTQSPSSLSASVGDRVTITCRASQGISSSLAWYQQKPGQAPRLLIYGASETESGVPSRFSGSGSGTDFTLTISSLQPEDFATYYCQNTKVGSSYGNTFGGGTKVEIKRTVAAPSVFIFPPSDEQLKSGTASVVCLLNNFYPREAKVQWKVDNALQSGNSQESVTEQDSKDSTYSLSSTLTLSKADYEKHKVYACEVTHQGLSSPVTKSFNRGEC

Further lines, the binder ahead of its results:

Binder | binding result [1] | binding result [2] | binding result [3] | binding result [4] | binding result [5] | binding result [6] | binding result [7] | binding result [8] | Kd [9] | pH dependency (kd pH 5.8 / kd pH 7.4) [10] | koff [11] | koff [12] | kon [12] | koff [13] | kon [13]
CFA0501 (antibody, V domains shown, Chimeric, rabbit V regions; also called CFA0501-F760G4) VH: QSVEESGGRLVTPGTPLTLTCTASGFSLSSYYMNWVRQAPGKGLEWIGMIYGSGATYYASWAKGRFTISKTSSTTVDLKMTSLTTEDTATYFCARQIYSGDNNDNFWGPGTLVTVSS VL: AYDMTQTPASVEVAVGGTVTINCQASESISNWLAWYQQKPGQRPKLLIYRASTLASGVSSRFKGSGSGTQFTLTISGVECDDAATYYCQQDYSSSNVDNTFGGGTKVVVE | no binding | no binding | no binding | no binding | no binding | no binding | no binding | no binding | 5.88 nM | – | – | – | – | – | –
CFA0538 (antibody, V domains shown, Chimeric, rabbit V regions; also called CFA0538-F760G4) VH: QSVEESGGRLVTPGTPLTLTCTASGFSLSSYYMNWVRQAPGKGLEWIGMIYGSGATYYASWAKGRFTISKTSSTTVDLKMTSLTTEDTATYFCARQIYSGDNNDNFWGPGTLVTVSS VL: AYDMTQTPASVEVAVGGTVTINCQASESISNWLAWYQQKPGQRPKLLIYRASTLASGVSSRFKGSGSGTQFTLTISGVECDDAATYYCQQDYSSSNVDNTFGGGTTVVVE | no binding | no binding | no binding | no binding | no binding | no binding | no binding | no binding | 5.44 nM | – | – | – | – | – | –
CFA0599 (antibody, V domains shown, Chimeric, rabbit V regions; also called CFA0599-F760G4) VH: QSVEESGGRLVTPGTPLTLTCTVSGLSLSDNTMTWVRQAPGKGLEWIGIISFGGDAYYASWAKGRFPISKTSTTVDLRITSPTTEDTATYFCARVGAGNIFWYFDLWGPGTLVTVSS VL: AYDMTQTPASVEVSVGGTVTIKCQASESIYSALAWYQQKPGQPPKLLIYSASTLASGVPSRFKGSGSGTEYTLTISDLECADAATYYCQQYYSSTNVHNSFGGGTTVVVE | no binding | no binding | no binding | no binding | no binding | no binding | no binding | no binding | 4.33 nM | – | – | – | – | – | –
